In US20120034160A1 (AbbVie / Abbott, published 2012):

How the values were obtained:
[1] = molecular target: T1, Recombinant Human IL-1β (human, UniProt P01584 117-269); experiment: Biacore SPR; C-terminal VD
T1 construct: bought reagent; also called IL-1B
Method: (§1) The BIACORE assay (Biacore, Inc, Piscataway, N.J.) determines the affinity of antibodies or DVD-Ig with kinetic measurements of on-rate and off-rate constants. Binding of antibodies or DVD-Ig to a target antigen (for example, a purified recombinant target antigen) was determined by surface plasmon resonance-based measurements with a Biacore® 1000 or 3000 instrument (Biacore® AB, Uppsala, Sweden) using running HBS-EP (10 mM HEPES [pH 7.4], 150 mM NaCl, 3 mM EDTA, and 0.005% surfactant P20) at 25° C. All chemicals were obtained from Biacore® AB (Uppsala, Sweden) or otherwise from a different source as described in the text. For example, approximately 5000 RU of goat anti-mouse IgG, (Fcγ), fragment specific polyclonal antibody (Pierce Biotechnology Inc, Rockford, Ill.) diluted in 10 mM sodium acetate (pH 4.5) was directly immobilized across a CM5 research grade biosensor chip using a standard amine coupling kit according to manufacturer's instructions and procedures at 25 μg/ml. Unreacted moieties on the biosensor surface were blocked with ethanolamine. Modified carboxymethyl dextran surface in flowcell 2 and 4 was used as a reaction surface. Unmodified carboxymethyl dextran without goat anti-mouse IgG in flow cell 1 and 3 was used as the reference surface. For kinetic analysis, rate equations derived from the 1:1 Langmuir binding model were fitted simultaneously to association and dissociation phases of all eight injections (using global fit analysis) with the use of Biaevaluation 4.0.1 software. Purified antibodies or DVD-Ig were diluted in HEPES-buffered saline for capture across goat anti-mouse IgG specific reaction surfaces. Antibodies or DVD-Ig to be captured as a ligand (25 μg/ml) were injected over reaction matrices at a flow rate of 5 μl/min. The association and dissociation rate constants, kₒₙ (M⁻¹s⁻¹) and koff (s⁻¹) were determined under a continuous flow rate of 25 μl/min. Rate constants were derived by making kinetic binding measurements at different antigen concentrations ranging from 10−200 nM. The equilibrium dissociation constant (M) of the reaction between antibodies or DVD-Igs and the target antigen was then calculated from the kinetic rate constants by the following formula: KD=koff/kₒₙ. Binding was recorded as a function of time and kinetic rate constants are calculated.

[2] = molecular target: T2, Recombinant Human IL-17 (human, UniProt Q16552 20-155, limits assumed); experiment: Biacore SPR; N-terminal VD
T2 construct: bought reagent
T2 sequence (looked up): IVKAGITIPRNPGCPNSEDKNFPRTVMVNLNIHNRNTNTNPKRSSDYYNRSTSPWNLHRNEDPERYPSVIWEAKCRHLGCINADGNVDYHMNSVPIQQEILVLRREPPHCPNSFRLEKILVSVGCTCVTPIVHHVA
Method: as §1

B1: DVD1285 (bispecific antibody, human IgG1, kappa)
heavy: not shown
light: EIVLTQSPDFQSVTPKEKVTITCRASQNIGSELHWYQQKPDQSPKLLIKYASHSISGVPSRFSGSGSGTDFTLTINGLEAEDAATYYCHQSDTLPHTFGQGTKVDIKRTVAAPDIQMTQSPSSLSASVGDRVTITCRASGNIHNYLTWYQQTPGKAPKLLIYNAKTLADGVPSRFSGSGSGTDYTFTISSLQPEDIATYYCQHFWSIPYTFGQGTKLQITRTVAAPSVFIFPPSDEQLKSGTASVVCLLNNFYPREAKVQWKVDNALQSGNSQESVTEQDSKDSTYSLSSTLTLSKADYEKHKVYACEVTHQGLSSPVTKSFNRGEC
notes: V1 wt hIgG1, V2 kappa; also called DVD1285H; DVD1285L
- Kd [1]: 0.24 nM
- koff [1]: 0.0002 s⁻¹
- kon [1]: 820000 M⁻¹ s⁻¹
- Kd [2]: 0.39 nM
- koff [2]: 5.8e-05 s⁻¹
- kon [2]: 150000 M⁻¹ s⁻¹

B2: DVD1600 (bispecific antibody, human IgG1, kappa)
heavy: not shown
light: EIVLTQSPDFQSVTPKEKVTITCRASQDIGSELHWYQQKPDQPPKLLIKYASHSTSGVPSRFSGSGSGTDFTLTINGLEAEDAGTYYCHQTDSLPYTFGPGTKVDIKRTVAAPSVFIFPPDIQMTQSPSSLSASVGDRVTITCRASGNIHNYLTWYQQTPGKAPKLLIYNAKTLADGVPSRFSGSGSGTDYTFTISSLQPEDIATYYCQHFWSIPYTFGQGTKLQITRTVAAPSVFIFPPSDEQLKSGTASVVCLLNNFYPREAKVQWKVDNALQSGNSQESVTEQDSKDSTYSLSSTLTLSKADYEKHKVYACEVTHQGLSSPVTKSFNRGEC
notes: V1 wt hIgG1, V2 kappa; also called DVD1600H; DVD1600L
- Kd [1]: 0.55 nM
- koff [1]: 9.4e-05 s⁻¹
- kon [1]: 170000 M⁻¹ s⁻¹
- Kd [2]: ≤ 0.0038 nM
- koff [2]: < 1e-06 s⁻¹
- kon [2]: 2.8e+06 M⁻¹ s⁻¹

B3: DVD1602 (bispecific antibody, human IgG1, kappa)
heavy: not shown
light: EIVLTQSPDFQSVTPKEKVTITCRASQDIGSELHWYQQKPDQPPKLLIKYASHSTSGVPSRFSGSGSGTDFTLTINGLEAEDAGTYYCHQTDSLPYTFGPGTKVDIKRTVAAPSVFIFPPDIQMTQSPSSLSASVGDRVTITCRASGNIHNYLTWYQQTPGKAPKLLIYNAKTLADGVPSRFSGSGSGTDYTFTISSLQPEDIATYYCQHFWSIPYTFGQGTKLQITRTVAAPSVFIFPPSDEQLKSGTASVVCLLNNFYPREAKVQWKVDNALQSGNSQESVTEQDSKDSTYSLSSTLTLSKADYEKHKVYACEVTHQGLSSPVTKSFNRGEC
notes: V1 wt hIgG1, V2 kappa; also called DVD1602H; DVD1602L
- Kd [1]: 0.18 nM
- koff [1]: 2.3e-05 s⁻¹
- kon [1]: 130000 M⁻¹ s⁻¹
- Kd [2]: 0.0051 nM
- koff [2]: 1.4e-05 s⁻¹
- kon [2]: 2.7e+06 M⁻¹ s⁻¹

B4: DVD1594 (bispecific antibody, human IgG1, kappa)
heavy: not shown
light: DIQMTQSPSSLSASVGDRVTITCRASSGIISYIDWFQQKPGKAPKRLIYATFDLASGVPSRFSGSGSGTDYTLTISSLQPEDFATYYCRQVGSYPETFGQGTKLEIKRTVAAPSVFIFPPDTQVTQSPSSLSASVGDRVTITCITSTDIDVDMNWYQQKPGKPPKLLISQGNTLRPGVPSRFSSSGSGTDFTFTISSLQPEDFATYYCLQSDNLPLTFGQGTKLEIKRTVAAPSVFIFPPSDEQLKSGTASVVCLLNNFYPREAKVQWKVDNALQSGNSQESVTEQDSKDSTYSLSSTLTLSKADYEKHKVYACEVTHQGLSSPVTKSFNRGEC
notes: DVD-Ig, outer AB273, inner AB270, linker set 2; V1 wt hIgG1, V2 kappa; also called DVD1594H; DVD1594L
- Kd [1]: 0.6 nM
- koff [1]: 0.00043 s⁻¹
- kon [1]: 710000 M⁻¹ s⁻¹
- Kd [2]: 0.0056 nM
- koff [2]: 2.3e-05 s⁻¹
- kon [2]: 4.2e+06 M⁻¹ s⁻¹

B5: DVD1598 (bispecific antibody, human IgG1, kappa)
heavy: not shown
light: DIQMTQSPSSLSASVGDRVTITCRASSGIISYIDWFQQKPGKAPKRLIYATFDLASGVPSRFSGSGSGTDYTLTISSLQPEDFATYYCRQVGSYPETFGQGTKLEIKRTVAAPSVFIFPPETTVTQSPSSLSASVGDRVTITCITSTDIDVDMNWYQQKPGKPPKLLISQGNTLRPGVPSRFSSSGSGTDFTFTISSLQPEDFATYYCLQSDNLPLTFGQGTKLEIKRTVAAPSVFIFPPSDEQLKSGTASVVCLLNNFYPREAKVQWKVDNALQSGNSQESVTEQDSKDSTYSLSSTLTLSKADYEKHKVYACEVTHQGLSSPVTKSFNRGEC
notes: DVD-Ig, outer AB273, inner AB272, linker set 2; V1 wt hIgG1, V2 kappa; also called DVD1598H; DVD1598L
- Kd [1]: 1.2 nM
- koff [1]: 0.00074 s⁻¹
- kon [1]: 630000 M⁻¹ s⁻¹
- Kd [2]: 0.0051 nM
- koff [2]: 1.8e-05 s⁻¹
- kon [2]: 3.5e+06 M⁻¹ s⁻¹

B6: DVD1289 (bispecific antibody, human IgG1, kappa)
heavy: not shown
light: EIVLTQSPDFQSVTPKEKVTITCRASQNIGSELHWYQQKPDQSPKLLIKYASHSISGVPSRFSGSGSGTDFTLTINGLEAEDAATYYCHQSDTLPHTFGQGTKVDIKRTVAAPDTVVTQSPAFLSVTPGEKVTITCITSTDIDVDMNWYQQKPDQPPKLLISQGNTLRPGVPSRFSSSGSGTDFTFTISSLEAEDAATYYCLQSDNLPLTFGQGTKLEIKRTVAAPSVFIFPPSDEQLKSGTASVVCLLNNFYPREAKVQWKVDNALQSGNSQESVTEQDSKDSTYSLSSTLTLSKADYEKHKVYACEVTHQGLSSPVTKSFNRGEC
notes: DVD-Ig, outer AB275, inner AB271, linker set 1; V1 wt hIgG1, V2 kappa; also called DVD1289H; DVD1289L
- Kd [1]: 1.3 nM
- koff [1]: 0.00048 s⁻¹
- kon [1]: 370000 M⁻¹ s⁻¹
- Kd [2]: 0.4 nM
- koff [2]: 5.6e-05 s⁻¹
- kon [2]: 140000 M⁻¹ s⁻¹

B7: DVD1590 (bispecific antibody, human IgG1, kappa)
heavy: not shown
light: DIQMTQSPSSLSASVGDRVTITCRASSGIISYIDWFQQKPGKAPKRLIYATFDLASGVPSRFSGSGSGTDYTLTISSLQPEDFATYYCRQVGSYPETFGQGTKLEIKRTVAAPSVFIFPPDIQMTQSPSSLSASVGDRVTITCRASGNIHNYLTWYQQTPGKAPKLLIYNAKTLADGVPSRFSGSGSGTDYTFTISSLQPEDIATYYCQHFWSIPYTFGQGTKLQITRTVAAPSVFIFPPSDEQLKSGTASVVCLLNNFYPREAKVQWKVDNALQSGNSQESVTEQDSKDSTYSLSSTLTLSKADYEKHKVYACEVTHQGLSSPVTKSFNRGEC
notes: V1 wt hIgG1, V2 kappa; also called DVD1590H; DVD1590L
- Kd [1]: 0.19 nM
- koff [1]: 4.6e-05 s⁻¹
- kon [1]: 250000 M⁻¹ s⁻¹
- Kd [2]: 0.0018 nM
- koff [2]: 7e-06 s⁻¹
- kon [2]: 3.8e+06 M⁻¹ s⁻¹

B8: DVD1592 (bispecific antibody, human IgG1, kappa)
heavy: not shown
light: DIQMTQSPSSLSASVGDRVTITCRASSGIISYIDWFQQKPGKAPKRLIYATFDLASGVPSRFSGSGSGTDYTLTISSLQPEDFATYYCRQVGSYPETFGQGTKLEIKRTVAAPSVFIFPPDIQMTQSPSSLSASVGDRVTITCRASGNIHNYLTWYQQTPGKAPKLLIYNAKTLADGVPSRFSGSGSGTDYTFTISSLQPEDIATYYCQHFWSIPYTFGQGTKLQITRTVAAPSVFIFPPSDEQLKSGTASVVCLLNNFYPREAKVQWKVDNALQSGNSQESVTEQDSKDSTYSLSSTLTLSKADYEKHKVYACEVTHQGLSSPVTKSFNRGEC
notes: V1 wt hIgG1, V2 kappa; also called DVD1592H; DVD1592L
- Kd [1]: 0.0072 nM
- koff [1]: 4.9e-06 s⁻¹
- kon [1]: 690000 M⁻¹ s⁻¹
- Kd [2]: 0.0064 nM
- koff [2]: 2e-05 s⁻¹
- kon [2]: 3.2e+06 M⁻¹ s⁻¹

B9: DVD1596 (bispecific antibody, human IgG1, kappa)
heavy: not shown
light: DIQMTQSPSSLSASVGDRVTITCRASSGIISYIDWFQQKPGKAPKRLIYATFDLASGVPSRFSGSGSGTDYTLTISSLQPEDFATYYCRQVGSYPETFGQGTKLEIKRTVAAPSVFIFPPDTVVTQSPAFLSVTPGEKVTITCITSTDIDVDMNWYQQKPDQPPKLLISQGNTLRPGVPSRFSSSGSGTDFTFTISSLEAEDAATYYCLQSDNLPLTFGQGTKLEIKRTVAAPSVFIFPPSDEQLKSGTASVVCLLNNFYPREAKVQWKVDNALQSGNSQESVTEQDSKDSTYSLSSTLTLSKADYEKHKVYACEVTHQGLSSPVTKSFNRGEC
notes: DVD-Ig, outer AB273, inner AB271, linker set 2; V1 wt hIgG1, V2 kappa; also called DVD1596H; DVD1596L
- Kd [1]: 0.51 nM
- koff [1]: 0.00036 s⁻¹
- kon [1]: 700000 M⁻¹ s⁻¹
- Kd [2]: 0.0033 nM
- koff [2]: 1.3e-05 s⁻¹
- kon [2]: 4.1e+06 M⁻¹ s⁻¹

B10: DVD1287 (bispecific antibody, human IgG1, kappa)
heavy: not shown
light: EIVLTQSPDFQSVTPKEKVTITCRASQNIGSELHWYQQKPDQSPKLLIKYASHSISGVPSRFSGSGSGTDFTLTINGLEAEDAATYYCHQSDTLPHTFGQGTKVDIKRTVAAPDTQVTQSPSSLSASVGDRVTITCITSTDIDVDMNWYQQKPGKPPKLLISQGNTLRPGVPSRFSSSGSGTDFTFTISSLQPEDFATYYCLQSDNLPLTFGQGTKLEIKRTVAAPSVFIFPPSDEQLKSGTASVVCLLNNFYPREAKVQWKVDNALQSGNSQESVTEQDSKDSTYSLSSTLTLSKADYEKHKVYACEVTHQGLSSPVTKSFNRGEC
notes: DVD-Ig, outer AB275, inner AB270, linker set 1; V1 wt hIgG1, V2 kappa; also called DVD1287H; DVD1287L
- Kd [1]: 1.2 nM
- koff [1]: 0.00037 s⁻¹
- kon [1]: 310000 M⁻¹ s⁻¹
- Kd [2]: 0.3 nM
- koff [2]: 4.7e-05 s⁻¹
- kon [2]: 160000 M⁻¹ s⁻¹

B11: DVD1291 (bispecific antibody, human IgG1, kappa)
heavy: not shown
light: EIVLTQSPDFQSVTPKEKVTITCRASQNIGSELHWYQQKPDQSPKLLIKYASHSISGVPSRFSGSGSGTDFTLTINGLEAEDAATYYCHQSDTLPHTFGQGTKVDIKRTVAAPETTVTQSPSSLSASVGDRVTITCITSTDIDVDMNWYQQKPGKPPKLLISQGNTLRPGVPSRFSSSGSGTDFTFTISSLQPEDFATYYCLQSDNLPLTFGQGTKLEIKRTVAAPSVFIFPPSDEQLKSGTASVVCLLNNFYPREAKVQWKVDNALQSGNSQESVTEQDSKDSTYSLSSTLTLSKADYEKHKVYACEVTHQGLSSPVTKSFNRGEC
notes: DVD-Ig, outer AB275, inner AB272, linker set 1; V1 wt hIgG1, V2 kappa; also called DVD1291H; DVD1291L
- Kd [1]: 2.8 nM
- koff [1]: 0.00058 s⁻¹
- kon [1]: 210000 M⁻¹ s⁻¹
- Kd [2]: 0.048 nM
- koff [2]: 6e-07 s⁻¹
- kon [2]: 12000 M⁻¹ s⁻¹
